The test has as its target SARS-CoV-2 spike protein variant B.1.1.7 (SARS-CoV-2), P0DTC2. In words: cell-based or functional assay.

B1: vS07_29B10 (designed binder)
chain: MRGSHHHHHHGSDLGKKLLQAARAGQLDEVRELLKAGADVNAKDREGITPLHLAAQHGHLEIVEVLLKAGADVNAKDVWGRTPLHLAAWQGHLEIVEVLLKAGADVNAKDLAGATPLHVAALYGHLEIVEVLLKAGADVNAQDKSGKTPADLAARAGHQDIAEVLQKAA
Consider B1, for which the VSV Pseudotype Neutralization Assay IC50 is 4.6 ng/mL.

B2: vS07_23E04 (designed binder)
chain: MRGSHHHHHHGSDLGKKLLQAARAGQLDEVRELLKAGADVNAKDQEGITPLHVAAHQGHLEIVEVLLKAGADVNAKDVWGRTPLHLAAWRGHLEIVEVLLKAGADVNAKDHAGATPLHAAALSGHLEIVEVLLKAGADVNAQDKSGKTPADLAARAGHQDIAEVLQKAA
Regarding B2, the VSV Pseudotype Neutralization Assay IC50 is 11.7 ng/mL.

B3: vS07_12C06 (designed binder)
chain: MRGSHHHHHHGSDLGKKLLQAARAGQLDEVRELLKAGADVNAKDREGKTPLHVAAQEGHLEIVEVLLKAGADVNAKDVWGRTPLHLAAWIGHLEIVEVLLKAGADVNAKDVSGATPLHAAALHGHLEIVEVLLNAGADVNAQDKSGKTPADLAARAGHQDIAEVLQKAA
With B3, the VSV Pseudotype Neutralization Assay IC50 amounted to 5.4 ng/mL.

B4: ALE049 (designed binder)
chain: MRGSHHHHHHGSDLGKKLLEAARAGQDDEVRELLKAGADVNAKDYFSHTPLHLAARNGHLKIVEVLLKAGADVNAKDFAGKTPLHLAANEGHLEIVEVLLKAGADVNAQDIFGKTPADIAADAGHEDIAEVLQKAAGSPTPTPTTPTPTPTTPTPTPTGSDLGKKLLEAARAGQDDEVRELLKAGADVNAKDYFSHTPLHLAARNGHLKIVEVLLKAGADVNAKDFAGKTPLHLAANEGHLEIVEVLLKAGADVNAQDIFGKTPADIAADAGHEDIAEVLQKAAGSPTPTPTTPTPTPTTPTPTPTGSDLGKKLLQAARAGQLDEVRELLKAGADVNAKDREGITPLHLAAQHGHLEIVEVLLKAGADVNAKDVWGRTPLHLAAWQGHLEIVEVLLKAGADVNAKDLAGATPLHVAALYGHLEIVEVLLKAGADVNAQDKSGKTPADLAARAGHQDIAEVLQKAAGSPTPTPTTPTPTPTTPTPTPTGSDLGKKLLQAARAGQLDEVRELLKAGADVNAKDREGKTPLHVAAQEGHLEIVEVLLKAGADVNAKDVWGRTPLHLAAWIGHLEIVEVLLKAGADVNAKDVSGATPLHAAALHGHLEIVEVLLNAGADVNAQDKSGKTPADLAARAGHQDIAEVLQKAAGSPTPTPTTPTPTPTTPTPTPTGSDLGKKLLQAARAGQLDEVRELLKAGADVNAKDQEGITPLHVAAHQGHLEIVEVLLKAGADVNAKDVWGRTPLHLAAWRGHLEIVEVLLKAGADVNAKDHAGATPLHAAALSGHLEIVEVLLKAGADVNAQDKSGKTPADLAARAGHQDIAEVLQKAA
B4 returned a VSV Pseudotype Neutralization Assay IC50 of 1.7 ng/mL.
